T1: human glucose-dependent insulinotropic polypeptide (GIP) receptor (human), P48546
T1 chain: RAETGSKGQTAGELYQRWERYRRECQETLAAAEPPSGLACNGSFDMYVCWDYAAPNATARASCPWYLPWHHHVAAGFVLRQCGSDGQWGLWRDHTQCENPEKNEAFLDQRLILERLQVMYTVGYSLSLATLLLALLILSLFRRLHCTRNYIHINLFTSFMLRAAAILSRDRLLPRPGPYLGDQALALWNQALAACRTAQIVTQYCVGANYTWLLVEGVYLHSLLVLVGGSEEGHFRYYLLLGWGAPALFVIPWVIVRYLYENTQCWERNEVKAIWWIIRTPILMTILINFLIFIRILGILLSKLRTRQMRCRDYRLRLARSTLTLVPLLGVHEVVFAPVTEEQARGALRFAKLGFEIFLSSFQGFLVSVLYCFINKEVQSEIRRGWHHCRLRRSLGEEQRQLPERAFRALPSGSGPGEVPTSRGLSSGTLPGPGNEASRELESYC

B1: Example 106 (peptide)
peptide: Y[Aib]EGTFISDYSI[αMeL]LD[Orn]IHQ[Aib]EFVEYK([AEEA-AEEA-γGlu-C20 diacid])LEQGPSSGAPPPS-NH2
modifications: N-terminus assumed
SMILES: CC[C@H](C)[C@H](NC(=O)[C@H](CCCN)NC(=O)[C@H](CC(=O)O)NC(=O)[C@H](CC(C)C)NC(=O)[C@](C)(CC(C)C)NC(=O)[C@@H](NC(=O)[C@H](CO)NC(=O)[C@H](Cc1ccc(O)cc1)NC(=O)[C@H](CC(=O)O)NC(=O)[C@H](CO)NC(=O)[C@@H](NC(=O)[C@H](Cc1ccccc1)NC(=O)[C@@H](NC(=O)CNC(=O)[C@H](CCC(=O)O)NC(=O)C(C)(C)NC(=O)[C@@H](N)Cc1ccc(O)cc1)[C@@H](C)O)[C@@H](C)CC)[C@@H](C)CC)C(=O)N[C@@H](Cc1c[nH]cn1)C(=O)N[C@@H](CCC(N)=O)C(=O)NC(C)(C)C(=O)N[C@@H](CCC(=O)O)C(=O)N[C@@H](Cc1ccccc1)C(=O)N[C@H](C(=O)N[C@@H](CCC(=O)O)C(=O)N[C@@H](Cc1ccc(O)cc1)C(=O)N[C@@H](CCCCNC(=O)COCCOCCNC(=O)COCCOCCNC(=O)CC[C@H](NC(=O)CCCCCCCCCCCCCCCCCCC(=O)O)C(=O)O)C(=O)N[C@@H](CC(C)C)C(=O)N[C@@H](CCC(=O)O)C(=O)N[C@@H](CCC(N)=O)C(=O)NCC(=O)N1CCC[C@H]1C(=O)N[C@@H](CO)C(=O)N[C@@H](CO)C(=O)NCC(=O)N[C@@H](C)C(=O)N1CCC[C@H]1C(=O)N1CCC[C@H]1C(=O)N1CCC[C@H]1C(=O)N[C@@H](CO)C(N)=O)C(C)C
B2: Example 112 (peptide)
peptide: Y[Aib]EGT[αMePhe(2-F)]ISDYSIALDKIHQ[Aib]DFVE[4Pal]K([AEEA-AEEA-γGlu-C20 diacid])LEGGPSSGAPPPS-NH2
modifications: N-terminus assumed
SMILES: CC[C@H](C)[C@H](NC(=O)[C@H](CO)NC(=O)[C@H](Cc1ccc(O)cc1)NC(=O)[C@H](CC(=O)O)NC(=O)[C@H](CO)NC(=O)[C@@H](NC(=O)[C@](C)(Cc1ccccc1F)NC(=O)[C@@H](NC(=O)CNC(=O)[C@H](CCC(=O)O)NC(=O)C(C)(C)NC(=O)[C@@H](N)Cc1ccc(O)cc1)[C@@H](C)O)[C@@H](C)CC)C(=O)N[C@@H](C)C(=O)N[C@@H](CC(C)C)C(=O)N[C@@H](CC(=O)O)C(=O)N[C@@H](CCCCN)C(=O)N[C@H](C(=O)N[C@@H](Cc1c[nH]cn1)C(=O)N[C@@H](CCC(N)=O)C(=O)NC(C)(C)C(=O)N[C@@H](CC(=O)O)C(=O)N[C@@H](Cc1ccccc1)C(=O)N[C@H](C(=O)N[C@@H](CCC(=O)O)C(=O)N[C@@H](Cc1ccncc1)C(=O)N[C@@H](CCCCNC(=O)COCCOCCNC(=O)COCCOCCNC(=O)CC[C@H](NC(=O)CCCCCCCCCCCCCCCCCCC(=O)O)C(=O)O)C(=O)N[C@@H](CC(C)C)C(=O)N[C@@H](CCC(=O)O)C(=O)NCC(=O)NCC(=O)N1CCC[C@H]1C(=O)N[C@@H](CO)C(=O)N[C@@H](CO)C(=O)NCC(=O)N[C@@H](C)C(=O)N1CCC[C@H]1C(=O)N1CCC[C@H]1C(=O)N1CCC[C@H]1C(=O)N[C@@H](CO)C(N)=O)C(C)C)[C@@H](C)CC
B3: Example 113 (peptide)
peptide: Y[Aib]EGT[αMePhe(2-F)]ISDYSIALDKIHQ[Aib]DFVE[4Pal]K([AEEA-AEEA-γGlu-C20 diacid])LEAGPSSGAPPPS-NH2
modifications: N-terminus assumed
SMILES: CC[C@H](C)[C@H](NC(=O)[C@H](CO)NC(=O)[C@H](Cc1ccc(O)cc1)NC(=O)[C@H](CC(=O)O)NC(=O)[C@H](CO)NC(=O)[C@@H](NC(=O)[C@](C)(Cc1ccccc1F)NC(=O)[C@@H](NC(=O)CNC(=O)[C@H](CCC(=O)O)NC(=O)C(C)(C)NC(=O)[C@@H](N)Cc1ccc(O)cc1)[C@@H](C)O)[C@@H](C)CC)C(=O)N[C@@H](C)C(=O)N[C@@H](CC(C)C)C(=O)N[C@@H](CC(=O)O)C(=O)N[C@@H](CCCCN)C(=O)N[C@H](C(=O)N[C@@H](Cc1c[nH]cn1)C(=O)N[C@@H](CCC(N)=O)C(=O)NC(C)(C)C(=O)N[C@@H](CC(=O)O)C(=O)N[C@@H](Cc1ccccc1)C(=O)N[C@H](C(=O)N[C@@H](CCC(=O)O)C(=O)N[C@@H](Cc1ccncc1)C(=O)N[C@@H](CCCCNC(=O)COCCOCCNC(=O)COCCOCCNC(=O)CC[C@H](NC(=O)CCCCCCCCCCCCCCCCCCC(=O)O)C(=O)O)C(=O)N[C@@H](CC(C)C)C(=O)N[C@@H](CCC(=O)O)C(=O)N[C@@H](C)C(=O)NCC(=O)N1CCC[C@H]1C(=O)N[C@@H](CO)C(=O)N[C@@H](CO)C(=O)NCC(=O)N[C@@H](C)C(=O)N1CCC[C@H]1C(=O)N1CCC[C@H]1C(=O)N1CCC[C@H]1C(=O)N[C@@H](CO)C(N)=O)C(C)C)[C@@H](C)CC
B4: Example 100 (peptide)
peptide: Y[Aib]EGTFISDYSI[αMeL]LDKIHQ[Aib]EFVE[4Pal]K([AEEA-AEEA-γGlu-C20 diacid])LEGGPSSGAPPPS-NH2
modifications: N-terminus assumed
SMILES: CC[C@H](C)[C@H](NC(=O)[C@H](CCCCN)NC(=O)[C@H](CC(=O)O)NC(=O)[C@H](CC(C)C)NC(=O)[C@](C)(CC(C)C)NC(=O)[C@@H](NC(=O)[C@H](CO)NC(=O)[C@H](Cc1ccc(O)cc1)NC(=O)[C@H](CC(=O)O)NC(=O)[C@H](CO)NC(=O)[C@@H](NC(=O)[C@H](Cc1ccccc1)NC(=O)[C@@H](NC(=O)CNC(=O)[C@H](CCC(=O)O)NC(=O)C(C)(C)NC(=O)[C@@H](N)Cc1ccc(O)cc1)[C@@H](C)O)[C@@H](C)CC)[C@@H](C)CC)C(=O)N[C@@H](Cc1c[nH]cn1)C(=O)N[C@@H](CCC(N)=O)C(=O)NC(C)(C)C(=O)N[C@@H](CCC(=O)O)C(=O)N[C@@H](Cc1ccccc1)C(=O)N[C@H](C(=O)N[C@@H](CCC(=O)O)C(=O)N[C@@H](Cc1ccncc1)C(=O)N[C@@H](CCCCNC(=O)COCCOCCNC(=O)COCCOCCNC(=O)CC[C@H](NC(=O)CCCCCCCCCCCCCCCCCCC(=O)O)C(=O)O)C(=O)N[C@@H](CC(C)C)C(=O)N[C@@H](CCC(=O)O)C(=O)NCC(=O)NCC(=O)N1CCC[C@H]1C(=O)N[C@@H](CO)C(=O)N[C@@H](CO)C(=O)NCC(=O)N[C@@H](C)C(=O)N1CCC[C@H]1C(=O)N1CCC[C@H]1C(=O)N1CCC[C@H]1C(=O)N[C@@H](CO)C(N)=O)C(C)C
B5: Example 99 (peptide)
peptide: Y[Aib]EGT[αMePhe(2-F)]ISDYSIALDKIHQ[Aib]DFVEYK([AEEA-AEEA-γGlu-C20 diacid])LEGGPSSGAPPPS-NH2
modifications: N-terminus assumed
SMILES: CC[C@H](C)[C@H](NC(=O)[C@H](CO)NC(=O)[C@H](Cc1ccc(O)cc1)NC(=O)[C@H](CC(=O)O)NC(=O)[C@H](CO)NC(=O)[C@@H](NC(=O)[C@](C)(Cc1ccccc1F)NC(=O)[C@@H](NC(=O)CNC(=O)[C@H](CCC(=O)O)NC(=O)C(C)(C)NC(=O)[C@@H](N)Cc1ccc(O)cc1)[C@@H](C)O)[C@@H](C)CC)C(=O)N[C@@H](C)C(=O)N[C@@H](CC(C)C)C(=O)N[C@@H](CC(=O)O)C(=O)N[C@@H](CCCCN)C(=O)N[C@H](C(=O)N[C@@H](Cc1c[nH]cn1)C(=O)N[C@@H](CCC(N)=O)C(=O)NC(C)(C)C(=O)N[C@@H](CC(=O)O)C(=O)N[C@@H](Cc1ccccc1)C(=O)N[C@H](C(=O)N[C@@H](CCC(=O)O)C(=O)N[C@@H](Cc1ccc(O)cc1)C(=O)N[C@@H](CCCCNC(=O)COCCOCCNC(=O)COCCOCCNC(=O)CC[C@H](NC(=O)CCCCCCCCCCCCCCCCCCC(=O)O)C(=O)O)C(=O)N[C@@H](CC(C)C)C(=O)N[C@@H](CCC(=O)O)C(=O)NCC(=O)NCC(=O)N1CCC[C@H]1C(=O)N[C@@H](CO)C(=O)N[C@@H](CO)C(=O)NCC(=O)N[C@@H](C)C(=O)N1CCC[C@H]1C(=O)N1CCC[C@H]1C(=O)N1CCC[C@H]1C(=O)N[C@@H](CO)C(N)=O)C(C)C)[C@@H](C)CC
B6: Example 107 (peptide)
peptide: Y[Aib]EGTFISDYSI[αMeL]LD[Orn]IHQ[Aib]EFVEYK([AEEA-AEEA-γGlu-C20 diacid])LEGGPSSGAPPPS-NH2
modifications: N-terminus assumed
SMILES: CC[C@H](C)[C@H](NC(=O)[C@H](CCCN)NC(=O)[C@H](CC(=O)O)NC(=O)[C@H](CC(C)C)NC(=O)[C@](C)(CC(C)C)NC(=O)[C@@H](NC(=O)[C@H](CO)NC(=O)[C@H](Cc1ccc(O)cc1)NC(=O)[C@H](CC(=O)O)NC(=O)[C@H](CO)NC(=O)[C@@H](NC(=O)[C@H](Cc1ccccc1)NC(=O)[C@@H](NC(=O)CNC(=O)[C@H](CCC(=O)O)NC(=O)C(C)(C)NC(=O)[C@@H](N)Cc1ccc(O)cc1)[C@@H](C)O)[C@@H](C)CC)[C@@H](C)CC)C(=O)N[C@@H](Cc1c[nH]cn1)C(=O)N[C@@H](CCC(N)=O)C(=O)NC(C)(C)C(=O)N[C@@H](CCC(=O)O)C(=O)N[C@@H](Cc1ccccc1)C(=O)N[C@H](C(=O)N[C@@H](CCC(=O)O)C(=O)N[C@@H](Cc1ccc(O)cc1)C(=O)N[C@@H](CCCCNC(=O)COCCOCCNC(=O)COCCOCCNC(=O)CC[C@H](NC(=O)CCCCCCCCCCCCCCCCCCC(=O)O)C(=O)O)C(=O)N[C@@H](CC(C)C)C(=O)N[C@@H](CCC(=O)O)C(=O)NCC(=O)NCC(=O)N1CCC[C@H]1C(=O)N[C@@H](CO)C(=O)N[C@@H](CO)C(=O)NCC(=O)N[C@@H](C)C(=O)N1CCC[C@H]1C(=O)N1CCC[C@H]1C(=O)N1CCC[C@H]1C(=O)N[C@@H](CO)C(N)=O)C(C)C

Starred links: 1 amine or outer side, 2 acyl side, 3 side chain; linkers in the order of their positions; H or OH if unused. Non-standard residues stand in square brackets, D forms with d. Groups on a side chain read outwards from the residue. No end group written: not given here. *: point of attachment. C20 diacid = O=C(O)CCCCCCCCCCCCCCCCCCC(=O)*; αMePhe(2-F) = C[C@](N)(Cc1ccccc1F)C(=O)O; γGlu = O=C(O)[C@H](CCC(=O)[*:2])N[*:1]; 4Pal = N[C@@H](Cc1ccncc1)C(=O)O; αMeL = CC(C)C[C@](C)(N)C(=O)O; Orn = NCCC[C@H](N)C(=O)O; AEEA = NCCOCCOCC(=O)O; Aib = CC(C)(N)C(=O)O

One experiment deals with human glucagon receptor (human), P47871. In words: SPA, displacement of [125I]-Gcg from hGcgR membranes, 0.1% bacitracin.
human glucagon receptor (human), P47871, sequence (P47871 26-477): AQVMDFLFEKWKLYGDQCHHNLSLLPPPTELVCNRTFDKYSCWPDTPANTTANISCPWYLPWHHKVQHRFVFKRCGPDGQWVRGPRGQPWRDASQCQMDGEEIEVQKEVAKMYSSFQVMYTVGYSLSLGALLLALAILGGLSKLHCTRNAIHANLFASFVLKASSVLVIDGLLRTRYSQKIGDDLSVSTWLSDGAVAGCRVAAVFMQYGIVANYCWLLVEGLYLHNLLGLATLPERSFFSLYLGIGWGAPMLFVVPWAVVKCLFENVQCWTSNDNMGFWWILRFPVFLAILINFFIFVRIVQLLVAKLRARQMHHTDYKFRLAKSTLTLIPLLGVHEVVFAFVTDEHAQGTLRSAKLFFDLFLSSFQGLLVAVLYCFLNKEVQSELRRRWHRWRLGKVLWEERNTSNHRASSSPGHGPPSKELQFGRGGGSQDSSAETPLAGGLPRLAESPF
By Ki is commonly meant the dissociation constant of the complex between target and ligand, obtained from inhibition or displacement. A higher Ki goes with weaker binding. In the case of B1, the inhibition constant Ki is 304 nM.

B2 gave an inhibitory constant (Ki) of 257 nM.

For the molecule B3, the Ki was 821 nM.

As for B4, the inhibitory constant (Ki) was 572 nM. This Ki and that of the molecule before are within 1.5-fold of each other.

For the molecule B5, the Ki was 174 nM. Compared with the last molecule, the Ki is about 3.3-fold lower.

The molecule B6 gave a Ki of 347 nM.

In another experiment the target is T1, human glucose-dependent insulinotropic …. In words: SPA, displacement of [125I]-GIP from hGIPR membranes, 0.1% bacitracin.
For the molecule B1, the Ki is 0.0918 nM.

In turn, B2 showed a Ki of 0.0742 nM.

Consider B3, for which the Ki was 0.108 nM.

Molecule B4 had a Ki of 0.0674 nM.

B5 came in with a Ki of 0.0341 nM.

Regarding B6, the Ki was 0.0722 nM.

Source of the values: patent US20210032299A1.
